Results from the supplement of paper PMC12764529.
± gives the half width of the 95% confidence interval.

What was measured:
[1] = folding stability dG unfold from chymotrypsin proteolysis; higher = more stable
In short: (§1)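 Designed mini-proteins with no cysteine and under 80 residues were kept only if AlphaFold2 dimer inter-PAE was above 15. In a PA-tagged cDNA display construct, they were digested with trypsin and chymotrypsin and then sequenced. K50 was inferred by Bayesian fitting of counts, and unfolding free energy was derived per protease or combined against a sequence-predicted unfolded-state K50 and a shared folded-state K50.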

[2] = folding stability dG unfold from trypsin proteolysis; higher = more stable
In short: as §1

[3] = folding stability dG unfold (combined trypsin and chymotrypsin); higher = more stable
In short: as §1

Sequence | folding stability dG unfold [1] | folding stability dG unfold [2] | folding stability dG unfold [3]
SAMKEAKIVSIEFDEETGTVTIEIEVPPGAKLKIRFLDTGEELEVEVKPGETITITVPKEPILIEIELESAG [r14_96_TrROS_Hall] | 4.09 ± 0.24 kcal/mol | 3.43 ± 0.18 kcal/mol | 3.79 ± 0.54 kcal/mol
SAGGSAPPNIVRPYVRPFLIYNPNGEPAALGELVIFEAPEGRLILLRLRSLENGEELELPFLYPGESAGGSA [r15_819_TrMRF] | 3.453 ± 0.02 kcal/mol | 2.71 ± 0.071 kcal/mol | 3.25 ± 0.037 kcal/mol
SAGGMEVTLRITAEGPEQLEKIQEILDELDVEEVNPTENEVEFRFPGPEPLAKLKEIAEELGLKVEGSAGGS [r16_88_TrMRF] | -0.635 ± 0.28 kcal/mol | -0.457 ± 0.23 kcal/mol | -0.377 ± 0.25 kcal/mol
SAGKPNIVVHPEYEQEKDPGDPGQPRIREMRVRVYLPNGRPITFRYRSPEDAVDRLLKRIQENPDLLKSAGG [r19_123_TrROS] | 2.11 ± 0.13 kcal/mol | 1.79 ± 0.12 kcal/mol | 2.07 ± 0.19 kcal/mol
SAISPTERVEATDYKSPNGAVGSTTTFPDPEGSTVSIVREGSTWRLVTVNPDGSVSEREVSPEEAAALLASA [r9_1144_JUSTAS] | 1.71 ± 0.065 kcal/mol | 1.89 ± 0.04 kcal/mol | 1.86 ± 0.067 kcal/mol
SAGGEVRIEVEIEVDPETGTVTVRAKIERDGKLFEVEMTLRVEPEEKPEKAPEVTVTVTVVFKPEGKSAGGS [r16_108_TrROS_Hall] | 2.54 ± 0.076 kcal/mol | 3.01 ± 0.26 kcal/mol | 2.78 ± 0.34 kcal/mol
SAMKLPPGVEAEVLEVTVDEEVTITIKLEDETVVIVNEKTGEVTVIKPGETVTITMKPGEKLRIIVIKPSAG [r14_385_TrROS_Hall] | 1.65 ± 0.047 kcal/mol | 3.2 ± 0.28 kcal/mol | 2.58 ± 0.24 kcal/mol
SAGMVIVIDKKKKKIYIFAPSKEMAEKIAKELNLKDVKVYEKGTSIEELLKKHPDVEKVIVLPAEELKSAGG [r19_270_TrROS_Hall] | 2.87 ± 0.056 kcal/mol | 1.45 ± 0.049 kcal/mol | 2.65 ± 0.27 kcal/mol
SAGGSAGGKLKVRIEIYRKDPKTNKWTKVKTIEIEIEAESEEELLAAAKALAPPGYEVKVELLPSAGGSAGG [r6_623_TrROS_Hall] | 5.23 ± 0.21 kcal/mol | 4.26 ± 0.24 kcal/mol | 5.15 ± 0.34 kcal/mol
SAGKIPPGEEQKKKIKLGGKEIKIKMWTYKNPDGQPHMMFRVEYDGEPGIFNPDSGRPMTPDDIKKMLKSAG [r5_138_TrROS] | 1.24 ± 0.35 kcal/mol | 0.0292 ± 0.19 kcal/mol | 0.788 ± 0.26 kcal/mol
SASLGISKIETSSLPNGTTVVTVTFSKPNLKVTLTKNPDGTITITLSPEVKKLPEEVKKLVEELAAKLSSAG [r14_555_JUSTAS] | 3.97 ± 0.048 kcal/mol | 3.97 ± 0.1 kcal/mol | 3.95 ± 0.095 kcal/mol
SAPKIKEIKEFDPETKKILIKVETPEGEKEIPIPAGGNMTVEEAIEKVKEFLEKELPEGVELEVEEITISAG [r14_422_TrMRF] | 1.35 ± 0.1 kcal/mol | 0.494 ± 0.12 kcal/mol | 1 ± 0.17 kcal/mol
SAGGSAGGSAKEIDFKFRSPGNGEEFPFRVEIDEFDPDDGPLLIKVEMPNGKPHTFPADDILSAGGSAGGSA [r18_334_TrROS] | 0.76 ± 0.15 kcal/mol | 0.101 ± 0.086 kcal/mol | 0.503 ± 0.11 kcal/mol
SAGGSAGGSAGSMKTLVTTETSTVPGTTTTVTTTTTTTYDPTSSETTTTTTPVTNPAPAASAGGSAGGSAGG [r17_309_JUSTAS] | 1.05 ± 0.02 kcal/mol | -0.827 ± 0.28 kcal/mol | 0.711 ± 0.071 kcal/mol
SAGGSAMKIVEKKTVTLTLPDGREVTVTLTKVEVDGETYYVLTVTDKDTGKTYTFVFKPGQSLEDLSAGGSA [r15_75_TrROS_Hall] | 4.67 ± 0.083 kcal/mol | 3.17 ± 0.092 kcal/mol | 4.39 ± 0.2 kcal/mol
SSVTLTLTAPLPDNTTVTVEVTLTPLPEKGLVVANPTVTVTTLTPDADGNLTTSSAPATFTVVVPPELAFSA [r9_1137_TrMRF] | 2.1 ± 0.11 kcal/mol | 1.48 ± 0.061 kcal/mol | 1.86 ± 0.11 kcal/mol
SAGGERKVKIEVMWNPDDPNYYMISVKFPGQERQFMIDPNDPERIIEFLEDLLGPGYKVDDIEIHPFRSAGG [r13_519_TrROS] | 1.61 ± 0.053 kcal/mol | 1.562 ± 0.012 kcal/mol | 1.67 ± 0.051 kcal/mol
SAGGSAGGSAGGSMKVEKLPDGKLLVFDVDTKEWKEIDVEDAEVVLDEDNGRAIVRIKPSAGGSAGGSAGGS [r4_127_TrROS_Hall] | 1.76 ± 0.076 kcal/mol | -0.173 ± 0.16 kcal/mol | 0.902 ± 0.28 kcal/mol
SSSIKTSTTTSTEPATGTTTTTTTVTYPDGTTTTTTTTTLPDGTTTVTTTTTPPDGSVTSTTTTLTSLTTTS [r1_461_JUSTAS] | 0.655 ± 0.043 kcal/mol | 1.24 ± 0.1 kcal/mol | 0.904 ± 0.17 kcal/mol
SAMTVTITLPPSISPEEAKAALEAAFPGEDIQVTTTTDPNAGTLTVTVTFSSPEDAARAAALLAEVRAASAG [r14_443_JUSTAS] | 4.68 ± 0.067 kcal/mol | 2.86 ± 0.046 kcal/mol | 4.33 ± 0.077 kcal/mol
SAMITITLPNGTPVNVEVTVTETRASPDGTLTTTDYELTFHPPDGVPRRGKGTVLSDPATGTTTITIIESAG [r14_789_JUSTAS] | 1.45 ± 0.028 kcal/mol | 1.47 ± 0.041 kcal/mol | 1.48 ± 0.042 kcal/mol

Sequence | folding stability dG unfold [1] | folding stability dG unfold [2] | folding stability dG unfold [3]
SAGGSMTLTGESEEEAKALVEALKEELKKKYPEKPNLEIPVKVIIKDPKTGKETEKVFKVKIPIPKSAGGSA [r2_393_JUSTAS] | 1.11 ± 0.09 kcal/mol | 1.04 ± 0.028 kcal/mol | 1.14 ± 0.062 kcal/mol
SAGGKLAELKEILKKLGLPKIESIEEDPETGVLRFKASSSKPILVTVPVRSLGDGSRPIEVEIKSTNISAGG [r13_410_JUSTAS] | 0.448 ± 0.32 kcal/mol | 0.227 ± 0.24 kcal/mol | 0.342 ± 0.18 kcal/mol
SAGGSAGWVTFDILFPGKTIEEAKEFIEQIPPEFMNNIKKIEIDEIHPVGGWYHVTLTIEVPPGMKSAGGSA [r15_244_TrROS] | 2.06 ± 0.049 kcal/mol | 0.743 ± 0.14 kcal/mol | 1.71 ± 0.16 kcal/mol
SAMKVEPFTFKVTFKVPVLNPETGEATEEGVEAEVVVYRSDDGTLYVVAFVKFENGKTAVFPFTIDKDGSAG [r14_50_TrMRF] | 3.781 ± 0.029 kcal/mol | 3.19 ± 0.1 kcal/mol | 3.59 ± 0.064 kcal/mol
SAGGSPIKPITFEFPNIKVTVYRMPNKYIMVHIEFRENGEPYYLMITFKLDPDNKLKATSIGPMPPSAGGSA [r2_171_TrROS] | 4.537 ± 0.037 kcal/mol | 2.69 ± 0.1 kcal/mol | 4.01 ± 0.093 kcal/mol
SAGGSAGGSAGAGSWKDALKASSNETVTIPLPPTGKTLKITFSKSDDGSWKVDIEVFPAESAGGSAGGSAGG [r11_13_TrMRF] | 2.18 ± 0.079 kcal/mol | 2.03 ± 0.13 kcal/mol | 2.12 ± 0.15 kcal/mol
SAGGSAGGGMVKREIKVTVTRLPESDVWLVTVTTKIGDKWEIIPVPVAAPADLSAEELAKEVLESAGGSAGG [r6_21_JUSTAS] | 0.751 ± 0.087 kcal/mol | 1.09 ± 0.036 kcal/mol | 0.939 ± 0.11 kcal/mol
AATTATVTLPFAPDDLDAAVEAARELASTLPPDSRITVAVPAPDGSTGTVTATVHPDGTIDVTVSPAAAPAS [r1_350_TrMRF] | 1.47 ± 0.04 kcal/mol | 0.731 ± 0.019 kcal/mol | 1.19 ± 0.1 kcal/mol
SAGGSAGGSSPVRTLTIPTENLTPEEILELVKNNPVDSVVLNADSEEEEKLKEELKKAGIKVLSAGGSAGGS [r12_610_JUSTAS] | 0.138 ± 0.15 kcal/mol | -0.501 ± 0.071 kcal/mol | -0.0698 ± 0.098 kcal/mol
SAGGSALKDFPLEEVEKVILVDLPDGKPALLVLLKGPPVVVLYPLESGKPIFIDAPLEEVLEFLLSSAGGSA [r15_810_TrMRF] | 2.892 ± 0.014 kcal/mol | 2.68 ± 0.05 kcal/mol | 2.83 ± 0.044 kcal/mol
SAGNKVEIMLMVPMKPDPDGEPEIDPQMIREIAKAAGAEGRVEDVDIQPMPDYYMIRVRLPGKEIWIMSAGG [r19_398_TrROS] | 1.1 ± 0.13 kcal/mol | 1.46 ± 0.031 kcal/mol | 1.38 ± 0.11 kcal/mol
SAGGSAGGGLIEIIPNTLKAKIINPKTGKVEEIEFSNIDELIEEIKKKYPNVDFKILPNGIILGSAGGSAGG [r6_286_TrMRF] | 2.82 ± 0.07 kcal/mol | 3.14 ± 0.16 kcal/mol | 3.05 ± 0.19 kcal/mol
SAGGSAGGGSLTPLSEDETTITLRLSPSLDEVLKELGLTVTGVEEEGETVTVTVKVSPEVKEKLSAGGSAGG [r6_109_JUSTAS] | -0.183 ± 0.2 kcal/mol | 0.13 ± 0.062 kcal/mol | 0.00369 ± 0.19 kcal/mol
SGMLAPDATVTTTEIVFEKDPKTGLYYLTVKEKTVTVKPDSSGRLVLTTSPVTITDLGPLTPEEAEKLLSSA [r9_423_JUSTAS] | 2.73 ± 0.031 kcal/mol | 2.16 ± 0.052 kcal/mol | 2.51 ± 0.085 kcal/mol
SAGGSAGGMTIKIEVNGKIIEIELPEGIKEITKIEIKKDGTITLYIKDNKKKITIKLDKLKKLKSAGGSAGG [r6_369_TrROS_Hall] | 3.01 ± 0.1 kcal/mol | 1.2 ± 0.09 kcal/mol | 2.34 ± 0.27 kcal/mol
SAGGSAGGGDAESYAKEKGFVEIKVTKLPDGSERVTAKYPDGTTADILYTPGQGTFTLLETKKESAGGSAGG [r6_906_JUSTAS] | 0.407 ± 0.082 kcal/mol | 0.154 ± 0.034 kcal/mol | 0.332 ± 0.078 kcal/mol
SAGGSAGGSAGGPVIEIKVPSKEDALEAARKLLEELFGKKPEDMKITVEYNPEDKTIKIKSAGGSAGGSAGG [r7_387_TrROS_Hall] | 1.28 ± 0.054 kcal/mol | 0.333 ± 0.063 kcal/mol | 0.986 ± 0.087 kcal/mol
SAGGSAGGSAMTITITGLSPEQIEEAAKALGATVTFDKETKTVTITVSPEQLEKLKELLEKSAGGSAGGSAG [r3_354_TrROS_Hall] | 3.58 ± 0.12 kcal/mol | 3.51 ± 0.14 kcal/mol | 3.58 ± 0.18 kcal/mol
SAGGMGTPFTTLTVTLEFPSSESLEEAKEKAEELAEELRRAHPEVVSIEIEVSKEGDTYKVKLTVTIASSAG [r5_446_JUSTAS] | 4.72 ± 0.11 kcal/mol | 4.37 ± 0.22 kcal/mol | 4.7 ± 0.13 kcal/mol
SAGGMKVEVVPGGGAVVVEIPFPPTPATARLVISFHPDGTVTADLEPHPELPAELRAKLVELARELLGSAGG [r13_139_TrMRF] | 2.31 ± 0.032 kcal/mol | 1.6 ± 0.02 kcal/mol | 2.07 ± 0.048 kcal/mol
SPAKPVPIEITMHGDGMFEIRLPNGKEISFPNPDGQWAQATVDPDEGTIEIEMYNNGKRHTFEIPLPPNDSA [r9_226_TrROS] | 0.499 ± 0.17 kcal/mol | 0.153 ± 0.14 kcal/mol | 0.459 ± 0.16 kcal/mol
